Test results from IntAct's records for PubMed 17166838.

B1: Huntingtin-associated protein 1 (Rattus norvegicus (Rat)), P54256-2 (parent)
chain: MRPKDQVQSSAGDGTGSGDPATGTPTTQPAADPAPEPSAEPKPAPAQGTGSGQKSGSRTKTGGSFCRSRIRGDSDAPWTRYIFQGPYGPRATGLGTGRAEGIWKTPAAYIGRRPGVSGPERAAFIRELQEALCPNPLPRKKITEDDIKVMLYLLEEKERDLNTAARIGQSLVKQNSVLMEENNKLETMLGSAREEILHLRKQVNLRDDLLQLYSDSDDDEEDEEDEEEEEGEEEEREGQRDQDQQHDHPYGAPKPPPKAETLHHCPQLEALKQKLKLLEEENDHLREEASHLDNLEDKEQMLILECVEQFSEASQQMAELSEVLVLRLEGYERQQKEITQLQAEITKLQQRCQSYGAQTEKLQQQLASEKGVHPESLRAGSHMQDYGSRPRERQEDGKSHRQRSSMPAGSVTHYGYSVPLDALPSFPETLAEELRTSLRKFITDPAYFMERCDTRCREERKKEQGTMPPPPVQDLKPPEDFEAPEELVPEEELGAIEEVGTAEDGPAEETEQASEETEAWEEVEPEVDEATRMNVVVSALEASGLGPSHLDMKYVLQQLSNWQDAHSKRQQKQKVVPKGECSRRGHPPASGTSYRSSTL

Variants of: B1
Settings: with 1433z_human YWHAZ
With T598A the “effect of a mutation on the interaction” value was “disrupting interaction”.
